Laboratory results as given in the supplement of paper PMC10201428.
± gives the standard deviation of the averaged measurements.

Tests used:
[1] = tested on: VchCAST RNA-guided transposition machinery (E. coli BL21(DE3) host, lacZ target); experiment: relative integration efficiency (T-LR orientation) vs wild-type transposon end (log2 (normalized fold change)); transposon end mutated: right end (5 bp flank + 75 bp right end); higher = more efficient transposition
Summary of the method: (§1)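 In E. coli BL21(DE3), a T7-driven effector plasmid was paired with a pUC57 mini-transposon donor containing 1549 left-end or 1849 right-end barcoded transposon variants. Cells grew on plates with 0.1 mM IPTG at 37°C for 18 h. Relative integration efficiency was derived from Illumina reads of genomic integration junctions against input plasmids, as a log-transformed output/input barcode fold change normalised to reference barcodes.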

[2] = tested on: VchCAST RNA-guided transposition machinery (E. coli BL21(DE3) host, lacZ target); experiment: relative integration efficiency (T-RL orientation) vs wild-type transposon end (log2 (normalized fold change)); transposon end mutated: right end (5 bp flank + 75 bp right end); higher = more efficient transposition
Summary of the method: as §1

Sequence	relative integration efficiency (log2) [1]	relative integration efficiency (log2) [2]
ACATTTGTTGATACCACCATCAAATGGTAATTCCACCCCTACATTGATAATTATCACACCCAATTTAACTATAACGCTCTGATCATAGTCAGACCAACATTGCTACGACCCGTATTCGCACCGACAC	-3.726 ± 0.034	-6.99 ± 0.2
ACATTTGTTGATACCCAAATAAAATGATAATTACACCCATAAATTGATAATTATCACACCCATAAATTGATATTGCCTCTGATCATAGTCAGACCAACATTGCTACGACCCGTATTCGCACCGACAC	-2.7 ± 0.25	-2.59 ± 0.17
ACATTTGTTGATACCCCCATAAAATGATAATTACACCCATAAATTGATAATTATCACACCCATAAATTGATATTGCCTCTGATCATAGTCAGACCAACATTGCTACGACCCGTATTCGCACCGACAC	-0.879 ± 0.24	-0.828 ± 0.081
ACATTTGTTGATACTACCATAAAATGATAATTACTCCCATAAATTGATAATTATCACTCCCATAAATTGATATTGCCTCTGATCATAGTCAGACCAACATTGCTACGACCCGTATTCGCACCGACAC	-0.0376 ± 0.31	-0.805 ± 0.022
ACATTTGTTGATACTACCATATAATGATAATAACACCCATAAAATGATAATTATCACACCCAATTTAACTATAACGCTCTGATCATAGTCAGACCAACATTGCTACGACCCGTATTCGCACCGACAC	1.9 ± 0.11	-1.45 ± 0.32
ACATTTGTTGATACTACCATTTAATGATAATAACACCCATAAAATGATAATTATCACACCCAATTTAACTATAACGCTCTGATCATAGTCAGACCAACATTGCTACGACCCGTATTCGCACCGACAC	1.8 ± 0.17	-1.01 ± 0.18
ACATTTGTTGATACTTCCATAAAATGATAATTACACCCATAAATTGATAATTATCACACCCATAAATTGATATTGCCTCTGATCATAGTCAGACCAACATTGCTACGACCCGTATTCGCACCGACAC	-0.525 ± 0.042	-0.637 ± 0.052
ACATTTGTTGATACTTGGATAAAATGATAATTACACCCATAAATTGATAATTATCACACCCATAAATTGATATTGCCTCTGATCATAGTCAGACCAACATTGCTACGACCCGTATTCGCACCGACAC	-1.07 ± 0.2	-0.966 ± 0.23
ACATTTGTTGATAGAACCATAAAATGATAATTAGACCCATAAATTGATAATTATCAGACCCATAAATTGATATTGCCTCTGATCATAGTCAGACCAACATTGCTACGACCCGTATTCGCACCGACAC	-0.628 ± 0.11	-1.64 ± 0.2
ACATTTGTTGATAGAACCATATAATGATAATAACACCCATAAAATGATAATTATCACACCCAATTTAACTATAACGCTCTGATCATAGTCAGACCAACATTGCTACGACCCGTATTCGCACCGACAC	1.28 ± 0.069	-1.72 ± 0.33
ACATTTGTTGATAGAACCATTTAATGATAATAACACCCATAAAATGATAATTATCACACCCAATTTAACTATAACGCTCTGATCATAGTCAGACCAACATTGCTACGACCCGTATTCGCACCGACAC	0.598 ± 0.17	-2.12 ± 0.42
ACATTTGTTGATAGTACCATAAAATGATAATTACACCCATAAATTGATAATTATCACACCCATAAATTGATATTGCCTCTGATCATAGTCAGACCAACATTGCTACGACCCGTATTCGCACCGACAC	-1.23 ± 0.17	-0.367 ± 0.064
ACATTTGTTGATAGTTGCATAAAATGATAATTACACCCATAAATTGATAATTATCACACCCATAAATTGATATTGCCTCTGATCATAGTCAGACCAACATTGCTACGACCCGTATTCGCACCGACAC	-1.37 ± 0.15	-1.07 ± 0.13
ACATTTGTTGATAGTTGGTATTTTACTATTAATCACCCATAAATTGATAATTATCAGTGGGTATTTAACTATAACGCTCTGATCATAGTCAGACCAACATTGCTACGACCCGTATTCGCACCGACAC	-4.49 ± 1.4	-5.71 ± 0.79
ACATTTGTTGATAGTTGGTATTTTACTATTAATGTGGGTATTTAACTATTAATTCACACCCATAAATTGATATTGCCTCTGATCATAGTCAGACCAACATTGCTACGACCCGTATTCGCACCGACAC	-3.485 ± 0.034	-6.222 ± 0.043
ACATTTGTTGATAGTTGGTATTTTACTATTAATGTGGGTATTTAACTATTAATTCAGTGGGTATTTAACTATAACGCTCTGATCATAGTCAGACCAACATTGCTACGACCCGTATTCGCACCGACAC	< -10	-6.63 ± 0.31
ACATTTGTTGATATAATTATCATTTTATGGTTGCAACCATAAAATGATAATTATCACAACCATAAAATGATAATTACTCTGATCATAGTCAGACCAACATTGCTACGACCCGTATTCGCACCGACAC	-4.32 ± 2.7	-3.54 ± 0.15
ACATTTGTTGATATAATTATCATTTTATGGTTGCAACCATAAAATGATAATTATGATAATTATCATTTTATGGTTGCTCTGATCATAGTCAGACCAACATTGCTACGACCCGTATTCGCACCGACAC	-4.33 ± 0.53	-2.97 ± 0.69

Sequence	relative integration efficiency (log2) [1]	relative integration efficiency (log2) [2]
ACATTTGTTGATATAATTATCATTTTATGGTTGTAATTATCATTTTATGGTTGTCATAATTATCATTTTATGGTTGCTCTGATCATAGTCAGACCAACATTGCTACGACCCGTATTCGCACCGACAC	-6.39 ± 2.5	-6.26 ± 0.22
ACATTTGTTGATATCAACCATAAAATGATAATTACACCCATAAATTGATAATTATCACACCCATAAATTGATATTGCCTCTGATCATAGTCAGACCAACATTGCTACGACCCGTATTCGCACCGACA	-1.376 ± 0.0096	-0.0259 ± 0.16
ACATTTGTTGATATGCAACCATAAAATGATAATTACACCCATAAATTGATAATTATCACACCCATAAATTGATATTGCCTCTGATCATAGTCAGACCAACATTGCTACGACCCGTATTCGCACCGAC	-7.72 ± 1.2	-6.537 ± 0.019
ACATTTGTTGATATGTTCAACCATAAAATGATAATTACACCCATAAATTGATAATTATCACACCCATAAATTGATATTGCCTCTGATCATAGTCAGACCAACATTGCTACGACCCGTATTCGCACCG	-7.23 ± 1.7	-6.34 ± 0.1
ACATTTGTTGATATGTTGACAACCATAAAATGATAATTACACCCATAAATTGATAATTATCACACCCATAAATTGATATTGCCTCTGATCATAGTCAGACCAACATTGCTACGACCCGTATTCGCAC	-5.78 ± 1.9	-6.69 ± 0.15
ACATTTGTTGATATGTTGATACAACCATAAAATGATAATTACACCCATAAATTGATAATTATCACACCCATAAATTGATATTGCCTCTGATCATAGTCAGACCAACATTGCTACGACCCGTATTCGC	0.26 ± 0.15	-0.0755 ± 0.058
ACATTTGTTGATATGTTGATCAACCATAAAATGATAATTACACCCATAAATTGATAATTATCACACCCATAAATTGATATTGCCTCTGATCATAGTCAGACCAACATTGCTACGACCCGTATTCGCA	-3.71 ± 0.28	-7.04 ± 0.42
ACATTTGTTGATCAAACCATAAAATGATAATTACACCCATAAATTGATAATTATCACACCCATAAATTGATATTGCCTCTGATCATAGTCAGACCAACATTGCTACGACCCGTATTCGCACCGACAC	-0.874 ± 0.45	-0.137 ± 0.021
ACATTTGTTGATCAACCATAAAATGATAATTACACCCATAAATTGATAATTATCACACCCATAAATTGATATTGCCTCTGATCATAGTCAGACCAACATTGCTACGACCCGTATTCGCACCGACACT	-4.42 ± 0.092	-8.26 ± 0.75
ACATTTGTTGATCACCCCATAAAATGATAATTACACCCATAAATTGATAATTATCACACCCATAAATTGATATTGCCTCTGATCATAGTCAGACCAACATTGCTACGACCCGTATTCGCACCGACAC	-1.51 ± 0.22	-0.839 ± 0.08
ACATTTGTTGATCCAACCATAAAATGATAATTACACCCATAAATGGATAATTATCACACCCAATTTAACTATAACGCTCTGATCATAGTCAGACCAACATTGCTACGACCCGTATTCGCACCGACAC	1.15 ± 0.043	-1.51 ± 0.15
ACATTTGTTGATCCAACCATAAAATGATAATTACACCCATAAATGGATCATTATCACACCCAATTTAACTATAACGCTCTGATCATAGTCAGACCAACATTGCTACGACCCGTATTCGCACCGACAC	1.13 ± 0.26	-1.74 ± 0.32
ACATTTGTTGATCCAACCATAAAATGATAATTACACCCATAAATTCATAATTATCACACCCAATTTAACTATAACGCTCTGATCATAGTCAGACCAACATTGCTACGACCCGTATTCGCACCGACAC	0.916 ± 0.17	-2.07 ± 0.2
ACATTTGTTGATCCAACCATAAAATGATAATTACACCCATAAATTCATCATTATCACACCCAATTTAACTATAACGCTCTGATCATAGTCAGACCAACATTGCTACGACCCGTATTCGCACCGACAC	1.23 ± 0.14	-2.42 ± 0.5
ACATTTGTTGATCCAACCATAAAATGATAATTACACCCATAAATTGATCATTATCACACCCAATTTAACTATAACGCTCTGATCATAGTCAGACCAACATTGCTACGACCCGTATTCGCACCGACAC	1.98 ± 0.02	-1.7 ± 0.3
ACATTTGTTGATTGAACCATAAAATGATAATTACACCCATAAATTGATAATTATCACACCCATAAATTGATATTGCCTCTGATCATAGTCAGACCAACATTGCTACGACCCGTATTCGCACCGACAC	-1.4 ± 0.71	-0.172 ± 0.032
ACATTTGTTGATTGTTCCATAAAATGATAATTACACCCATAAATTGATAATTATCACACCCATAAATTGATATTGCCTCTGATCATAGTCAGACCAACATTGCTACGACCCGTATTCGCACCGACAC	-1.3 ± 0.53	-1.3 ± 0.19
